Data from paper PMC5727127 (2017).
Read-outs that look alike come from different tables or passages of the source. Where no end group is shown, it is not given here.

What was measured:
[1] = molecular target: 3TD of SETDB1, W358A mutant, as used in ITC and crystals (UniProt Q15047 190-410, W358A); experiment: ITC
[2] = molecular target: 3TD of SETDB1, R384A mutant, as used in ITC (UniProt Q15047 190-410, alanine mutation of R384); experiment: ITC
[3] = molecular target: T1, triple Tudor domain (3TD) of SETDB1, wildtype, as used in solution (ITC, NMR, crystals) (UniProt Q15047 190-410); experiment: ITC
[4] = molecular target: 3TD of SETDB1, Y268A mutant, as used in ITC (UniProt Q15047 190-410, Y268A); experiment: ITC
[5] = molecular target: T1, triple Tudor domain (3TD) of SETDB1, …; experiment: ITC; remark: listed apart in the source
[6] = molecular target: T1, triple Tudor domain (3TD) of SETDB1, …; experiment: NMR
[7] = molecular target: T2, 3TD of SETDB1, F332A mutant, as used in ITC (UniProt Q15047 190-410, F332A); experiment: ITC
[8] = molecular target: T2, 3TD of SETDB1, F332A mutant, as used in …; experiment: ITC; remark: listed apart in the source

Kd [1] | Kd [2] | Kd [3] | Kd [4] | Kd [5] | Kd [6] | Kd [7] | Kd [8] | Binder
– | 5.1 µM | 29.4 µM | 19.2 µM | – | – | – | – | KQTARK(Me)STGGK(Ac)APRKQ [H3K9me1/K14ac peptide in solution (ITC)]
174 µM | 2.6 µM | 9.3 µM | 8.1 µM | – | – | 353 µM | ~350 µM | KQTARK(Me2)STGGK(Ac)APRKQ [H3K9me2/K14ac peptide in solution (ITC; crystal with W358A), limits not stated]

The remaining lines, values behind:

Binder | Kd [1] | Kd [2] | Kd [3] | Kd [4] | Kd [5] | Kd [6] | Kd [7] | Kd [8]
KQTARK(Me3)STGGK(Ac)APRKQ [H3K9me3/K14ac peptide in solution (ITC; crystals)] | 55.6 µM | 9.2 µM | 23.9 µM | 135 µM | – | – | – | –
KQTARKSTGGK(Ac)APRKQ [monomodified H3K14ac peptide in solution (ITC, NMR; crystal)] | – | – | – | – | > 500 µM | 930 µM | – | –
